In patent publication US20260258155A1 (TRIVENI BIO, published 2026):
Changes are numbered by the printed parent chain. Blank lines part the entries; values can stand above or below the binder they belong to.

Assays:
[1] = molecular target: T1, human KLK7 (hKLK7), active form (human, UniProt P49862 30-253); experiment: cell-based or functional assay
mouse KLK7 (mKLK7) [2] = molecular target: T2, mouse KLK7 (mKLK7) (mouse, UniProt Q91VE3 26-249); experiment: cell-based or functional assay
[3] = molecular target: T1, human KLK7 (hKLK7), active form; experiment: Biacore SPR, antibody captured on Protein A chip, single-cycle kinetics, 25 C
Method: (§1) All screening assays were performed at 25 C. The running buffer used was 20 mM HEPES, 300 mM NaCl, 0.01% Tween-20, pH 7.5. Antibodies (1 ug/mL) were captured on Fc2-4 of a Series S ProteinA Sensor Chip (Cytiva) flowing at 10 ul/mL for 30 s. Kinetics measurements were made in single-cycle kinetics mode with a series of 4-5 concentrations with top concentration of 25-100 nM and serial dilution 4-fold. Contact time was typically 300 s and dissociation time ranged from 1800-3600 s. Flow rate of 30 ul/mL was typically used. The sensor chip was regenerated with 10 mM glycine, pH 1.5 with a contact time of 30 s flowing at 50 ul/mL.

mouse KLK7 (mKLK7) [4] = molecular target: T2, mouse KLK7 (mKLK7); experiment: as above
Method: as §1

[5] = molecular target: T3, human KLK5 (hKLK5), active form (human, UniProt Q9Y337 67-293); experiment: cell-based or functional assay
mouse KLK5 (mKLK5) [6] = molecular target: mouse KLK5 (mKLK5) (mouse); experiment: cell-based or functional assay
[7] = molecular target: T3, human KLK5 (hKLK5), active form; experiment: Biacore SPR, antibody captured on Protein A chip, single-cycle kinetics, 25 C
Method: as §1

mouse KLK5 (mKLK5) [8] = molecular target: T4, mouse KLK5 (mKLK5) (mouse); experiment: as above
T4 construct: Enzymatically active in the protease assay
Method: as §1

T2 sequence (Q91VE3 26-249 limits assumed): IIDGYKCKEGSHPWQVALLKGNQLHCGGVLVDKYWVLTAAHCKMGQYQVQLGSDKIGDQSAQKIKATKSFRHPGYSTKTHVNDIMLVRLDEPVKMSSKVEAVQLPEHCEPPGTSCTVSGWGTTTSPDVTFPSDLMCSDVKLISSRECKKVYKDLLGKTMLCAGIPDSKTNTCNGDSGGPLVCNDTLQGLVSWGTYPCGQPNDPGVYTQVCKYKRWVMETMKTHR
T1 sequence (P49862 30-253): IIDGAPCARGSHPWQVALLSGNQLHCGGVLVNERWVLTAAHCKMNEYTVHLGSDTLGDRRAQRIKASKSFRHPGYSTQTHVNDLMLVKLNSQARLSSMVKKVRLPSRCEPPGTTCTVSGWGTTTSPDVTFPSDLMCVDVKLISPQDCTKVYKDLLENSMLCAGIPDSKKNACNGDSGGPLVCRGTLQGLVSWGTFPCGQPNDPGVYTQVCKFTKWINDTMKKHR

B1: KLK7-L1-Ab8 (antibody, V domains shown)
VH: QVQLVQSGAEVKKPGASVKVSCKASGYTFTSEGIHWVRQAPGQGLEWMGSISASSGDTNYAQKLQGRVTMTTDTSTSTAYMELRSLRSDDTAVYYCARSAGYGARHWYFDLWGQGTMVTVSS
VL: DIQMTQSPSSLSASVGDRVTITCRASQSISSYLNWYQQKPGKAPKLLIYGASSLQSGVPSRFSGSGSGTDFTLTISSLQPEDFATYYCDQWYSTPPITFGGGTKVEIK
hKLK7 IC50 (protease inhibition) [1]: 0.767 nM
hKLK7 IC90 (protease inhibition) [1]: 3.95 nM
mKLK7 IC50 (protease inhibition) (mouse KLK7 (mKLK7) [2]): 1.1 nM
mKLK7 IC90 (protease inhibition) (mouse KLK7 (mKLK7) [2]): 5.3 nM
Kd [3]: 0.01 nM
Kd (mouse KLK7 (mKLK7) [4]): 0.0569 nM

B2: KLK5-L2-Ab1 (antibody, V domains shown)
VH: QLQLQESGPGLVKPSETLSLTCTVSGGSISSSSYYWGWIRQPPGKGLEWIGSISYSGSTYYNPSLKSRVTISVDTSKNQFSLKLSSVTAADTAVYYCARGEYDRSYYYYGMDVWGQGTTVTVSS
VL: not shown
hKLK5 IC50 (protease inhibition) [5]: 11 nM
hKLK5 IC90 (protease inhibition) [5]: 92.9 nM
mKLK5 IC50 (protease inhibition) (mouse KLK5 (mKLK5) [6]): 45.9 nM
mKLK5 IC90 (protease inhibition) (mouse KLK5 (mKLK5) [6]): 93.2 nM
Kd [7]: 2.53 nM
Kd (mouse KLK5 (mKLK5) [8]): 20.5 nM

B3: KLK5-L2-Ab2 (antibody, V domains shown)
VH: B2 VH with S30P, G37A, S52N, S54Y, Y106A, Y107L
VL: not shown
hKLK5 IC50 (protease inhibition) [5]: 1.71 nM
hKLK5 IC90 (protease inhibition) [5]: 8.46 nM
mKLK5 IC50 (protease inhibition) (mouse KLK5 (mKLK5) [6]): 2.21 nM
mKLK5 IC90 (protease inhibition) (mouse KLK5 (mKLK5) [6]): 13.1 nM
Kd [7]: 0.003 nM
Kd (mouse KLK5 (mKLK5) [8]): 0.44 nM

B5: KLK7-L3-Ab1 (antibody, V domains shown)
VH: QVQLVQSGAEVKKPGSSVKVSCKASGGTFSNYAISWVRQAPGQGLEWMGGIIPIFGTANYAQKFQGRVTITADESTSTAYMELSSLRSEDTAVYYCARGAPNYYGSSSSRGIAFDIWGQGTMVTVSS
VL: DIQMTQSPSSVSASVGDRVTITCRASQGISSWLAWYQQKPGKAPKLLIYAASSLQSGVPSRFSGSGSGTDFTLTISSLQPEDFATYYCVQANAFPYTFGGGTKVEIK
hKLK7 IC50 (protease inhibition) [1]: 0.37 nM
hKLK7 IC90 (protease inhibition) [1]: 10.5 nM
mKLK7 IC50 (protease inhibition) (mouse KLK7 (mKLK7) [2]): 10.9 nM
mKLK7 IC90 (protease inhibition) (mouse KLK7 (mKLK7) [2]): 212 nM
Kd [3]: 0.0205 nM
Kd (mouse KLK7 (mKLK7) [4]): 9.03 nM

B6: KLK5-L3-Ab2 (antibody, V domains shown)
VH: QVQLVQSGAEVKKPGSSVKVSCKASGGTFSGYSISWVRQAPGQGLEWMGLIFPISGTANYAQKFQGRVTITADESTSTAYMELSSLRSEDTAVYYCARGSASGYYDRSYYYYGMDVWGQGTTVTVSS
VL: B5 VL with V89Q, A91V, N92S, A93S
hKLK5 IC50 (protease inhibition) [5]: 4.45 nM
hKLK5 IC90 (protease inhibition) [5]: 24 nM
mKLK5 IC50 (protease inhibition) (mouse KLK5 (mKLK5) [6]): 15 nM
mKLK5 IC90 (protease inhibition) (mouse KLK5 (mKLK5) [6]): 91.3 nM
Kd (mouse KLK5 (mKLK5) [8]): 3.8 nM

B8: KLK5-L3-Ab5 (antibody, V domains shown)
VH: B6 VH with G99Q, Y111R
VL: B5 VL with V89Q, A91V, N92S, A93S
hKLK5 IC50 (protease inhibition) [5]: 2.58 nM
hKLK5 IC90 (protease inhibition) [5]: 10.6 nM
mKLK5 IC50 (protease inhibition) (mouse KLK5 (mKLK5) [6]): 4.44 nM
mKLK5 IC90 (protease inhibition) (mouse KLK5 (mKLK5) [6]): 28.4 nM
Kd (mouse KLK5 (mKLK5) [8]): 3.4 nM

B10: KLK5-L3-Ab1 (antibody, V domains shown)
VH: B6 VH with S16A, G27Y, S30T, S33Y, I34M, S35H, L50G, F52I
VL: B5 VL with V89Q, A91V, N92S, A93S
hKLK5 IC50 (protease inhibition) [5]: 12.7 nM
hKLK5 IC90 (protease inhibition) [5]: 112 nM
mKLK5 IC50 (protease inhibition) (mouse KLK5 (mKLK5) [6]): 81.3 nM
mKLK5 IC90 (protease inhibition) (mouse KLK5 (mKLK5) [6]): 130 nM
Kd [7]: 2.62 nM
Kd (mouse KLK5 (mKLK5) [8]): 16.6 nM

B11: KLK7-L4-Ab1 (antibody, V domains shown)
VH: QLQLQESGPGLVKPSETLSLTCTVSGGSISSSSYYWGWIRQPPGKGLEWIGSISYSGSTYYNPSLKSRVTISVDTSKNQFSLKLSSVTAADTAVYYCARGAPTYFGAASHYYYYMDVWGKGTTVTVSS
VL: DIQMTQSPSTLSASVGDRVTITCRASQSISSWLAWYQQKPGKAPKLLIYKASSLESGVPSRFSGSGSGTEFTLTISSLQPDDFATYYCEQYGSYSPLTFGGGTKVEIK
hKLK7 IC50 (protease inhibition) [1]: 0.52 nM
hKLK7 IC90 (protease inhibition) [1]: 14.9 nM
mKLK7 IC50 (protease inhibition) (mouse KLK7 (mKLK7) [2]): 16.3 nM
mKLK7 IC90 (protease inhibition) (mouse KLK7 (mKLK7) [2]): 118 nM
Kd [3]: 0.219 nM
Kd (mouse KLK7 (mKLK7) [4]): 6 nM

Second part, the binder after the results:

hKLK5 IC50 (protease inhibition) [5]: 3.45 nM
hKLK5 IC90 (protease inhibition) [5]: 83.1 nM
mKLK5 IC50 (protease inhibition) (mouse KLK5 (mKLK5) [6]): 29.4 nM
mKLK5 IC90 (protease inhibition) (mouse KLK5 (mKLK5) [6]): 103 nM
Kd [7]: 0.783 nM
Kd (mouse KLK5 (mKLK5) [8]): 4.44 nM
B4: KLK5-L1-Ab1 (antibody, V domains shown)
VH: EVQLVESGGGLVQPGGSLRLSCAASGFTFSSYSMNWVRQAPGKGLEWVSYISSSSSTIYYADSVKGRFTISRDNAKNSLYLQMNSLRAEDTAVYYCARDLTSMQSRDYYYYGMDVWGQGTTVTVSS
VL: B5 VL with V89Q, A91V, N92P, A93I

hKLK5 IC50 (protease inhibition) [5]: 1.76 nM
hKLK5 IC90 (protease inhibition) [5]: 9.81 nM
mKLK5 IC50 (protease inhibition) (mouse KLK5 (mKLK5) [6]): 8.27 nM
mKLK5 IC90 (protease inhibition) (mouse KLK5 (mKLK5) [6]): 83.2 nM
Kd (mouse KLK5 (mKLK5) [8]): 8.8 nM
B7: KLK5-L3-Ab4 (antibody, V domains shown)
VH: B6 VH with S30N, G31N, S33H, L50G, F52I, I54P, S55F, N59H, S100E, M114L
VL: B5 VL with V89Q, A91V, N92S, A93S

hKLK5 IC50 (protease inhibition) [5]: 2.81 nM
hKLK5 IC90 (protease inhibition) [5]: 11.1 nM
mKLK5 IC50 (protease inhibition) (mouse KLK5 (mKLK5) [6]): 14.9 nM
mKLK5 IC90 (protease inhibition) (mouse KLK5 (mKLK5) [6]): 87 nM
Kd (mouse KLK5 (mKLK5) [8]): 7.2 nM
B9: KLK5-L3-Ab3 (antibody, V domains shown)
VH: B6 VH with S30N, G31N, S33H, L50G, F52I, I54P, S55F, N59H
VL: B5 VL with V89Q, A91V, N92S, A93S
